AmyQ secretion efficiency data for 109 sequences are collected here from the supplement of paper PMC9942255.

Values joined by “and” are separate entries in the source; they are usually repeats but may differ in a detail not shown here. Equal entries are not always repeated.

In the series the test system is Bacillus subtilis DB104 (SP-AmyQ fusion secretion). Description: AmyQ secretion efficiency, weighted average sort bin (1 = best secretion, 10 = worst) (bin number (weighted average, 1-10)); higher = lower secretion efficiency. In short, it runs like this:
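Designed signal peptides were fused to mature AmyQ and expressed from the amyE locus in B. subtilis DB104, and this library was loaded at about 0.3 cells per ~65 nL alginate bead together with fluorescein-starch. After about 13 h of growth at room temperature and nile red staining, occupied beads were split into 10 equally populated bins by green/red fluorescence ratio using large-particle flow cytometry. Amplicons from every bin were Illumina-sequenced. The secretion score is the average bin number weighted by read frequency and normalised to beads per bin, excluding low-abundance sequences.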

Regarding MKWMCSICCAAVLLAGGAPQAEAV, the AmyQ secretion efficiency came to 2.41. The result for MRKKLKWLSFLLGFIILLFLFKYQFSQNDS reads 8.41; that for MKNMSCKLVVSVTLFFSFLTIGPLVHAQNS, 1.05; that for MKRRRRKLLSTLLIGIMLLTFAPSAFAKQD, 1.81.

With MKRKRFLIGAGVAAVILSGWFIADHQTHSQEM, the AmyQ secretion efficiency was determined as 5.04. MTMLRKIIGWILLLCIIPLFAFTVITSGKEV displayed an AmyQ secretion efficiency of 6.41.

Regarding MRKKCSTCRWILVLLLSCLSGKSAYAATS, the AmyQ secretion efficiency stood at 5.49. The result for MNLRKILLSSALSLGMLVSAAPVLMTSS reads 4.51; that for MSGTTSIILFSTLALAAGMTAAAAGGAGTIHAQQP, 3.5. As for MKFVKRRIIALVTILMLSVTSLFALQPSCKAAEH, the AmyQ secretion efficiency was found to be 2.68. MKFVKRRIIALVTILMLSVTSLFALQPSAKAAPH came in with an AmyQ secretion efficiency of 2.38.

MNKKYGVLIVCIIFTSALFPTFSSVTAAQG had an AmyQ secretion efficiency of 1.02. The result for MKLSVKIAGVLTVAAAAMTAKMYFFPAATAKGN reads 6.16; that for MKRLLSTLLIGIMLLTFAPSMFAKQD, 2.35; that for MLKKIALTLCPAIVGSLLFFTAPRSAHVS, 5.22. The result for MKKTIMSFVAVAALSTTAFGAHASTKEI reads 5.13.

With MRKKRVITCVMAASLTLGSLLPAGYCSAKED, the AmyQ secretion efficiency is 3.36. As for MKKQIITATTAVVLGSTLFAGAASMQSI, the AmyQ secretion efficiency worked out at 3.83. MTMSSGMSSILAVSVLLLLSRLPVQASLTSE returned an AmyQ secretion efficiency of 4.1.

For MKKVVSALSISALALSVSGVASAHEI, the AmyQ secretion efficiency amounted to 2.8. The value for MRKYTVIASILLSFLSVLDEDDEDHHESKAFPV was 5.95; that for MLTKRLLTIYIMLLGLILAWFPGAAQAEEK was 2.09; that for MKLKSKLLLSCLALSTVFVATTIANLPTH was 6.34. Consider MKKRFSLIMMTGLLFGLTKKRAFAAEK, for which the AmyQ secretion efficiency came out at 6.54. The sequence MTTWIVLFLVLIAAAISIFVYVSTGSEK returned an AmyQ secretion efficiency of 8.09.

Turning to MKRIRIPMTLALGAALTIAPLSFASVEEN, the AmyQ secretion efficiency was found to be 6.71.

In the case of MKKARRVLLSLGLVFGFSYGAGHVAEAKTK, the AmyQ secretion efficiency was 2.43. The result for MKKELLASLVLCLSLSPLVSTNEVFAATT reads 2.73. The value for MAIIIAIIAAVIVIAALITFNVSNASPG was 7.09. The value for MKKGIIRFLLVSFVLFFALRRKKKRVQAAPA was 5.81; that for MKKLIMALVILGALGTSYISADSS was 6.77 and 6.15. With MKRFSTAYLLLGILCSAAVFLIGAPSRALGDED, the AmyQ secretion efficiency turned out to be 6.23.

Turning to MKNMSCKLVVSVTLFFSFLTIGPLAHWQNS, the AmyQ secretion efficiency amounted to 5.85. The value for MKKLVLCVSILAVILKRKRKKALTQLS was 6.12; that for MKKKLAAGLTASAIVGTTLVVTPYEAATI was 5.36; that for MFKKHTISLLIIFLLAEAVLAEPIEAHTV was 2.51. The result for MRPVFPLILSAVLFLSCFFGARQTENSASKR reads 6.14. The result for MGKWIYVVLVLSIAGIGGFSVHAASS reads 6.5; that for MRSKKLWISLLFALTLIFTMAFSNMSDQAAGK, 2.84; that for MGLGKKLSVAVAASFMSLSISLPGVQSAEG, 3.87. As for MRSYIKVLTMCFLGLILFVPTALPDNS, the AmyQ secretion efficiency was 7.02. The value for MKKRLIAPMLKRAASLAFFAMSGSAQAAAY was 6.4; that for MKKWIYVVLVLSIAGIGGFSVHDASS was 7.82; that for MKTLRTLCVLMILSGVIFFGLKDIDAKDI was 6.44. The result for MPIKKKVMMCLAVMLVFLMMSFPTLTNSGGFKE reads 3.23; that for MRMLWRSRRKCKRRLTLAPCAQAAEP, 5.33. Regarding MKLKKRVSMFLVALTMCGGLFVTPPFVAKAVKT, the AmyQ secretion efficiency stood at 4.47. The result for MKVPKTMNFSFTLLSTAAGLLLSLTATSVSAHYV reads 5.47. Regarding MTMLRKIIGWILLLCIIKKKAFTVIASGKEV, the AmyQ secretion efficiency stood at 7.58. The result for MKKAAAVLLSLGLVFGFSYGAGHVAELKTK reads 6.97; that for MKRRFMKASLVLFAVVFVFAVKGAPAKAETH, 2.6.

As for MKTKTLFIFSAILTLSIFAPNESFAQTA, the AmyQ secretion efficiency amounted to 2.17. Take MKKRLIAPKLLSAASLAFFAMSGSAQAAAY: the AmyQ secretion efficiency was 3.27. The value for MRIFKKAVFVIMISFLIATVNVNTAHIAID was 6.89; that for MLKKKWMVKKKRRCKAAGGFSYNAFATEN was 7.54; that for MKVLLSALLLLFEPSASGKKL was 7.48. As for MPYLKRVLLLLVTGLFMSLFAVTATDSAQTG, the AmyQ secretion efficiency was found to be 6.72. The value for MIAYFGKCLLLVTIMFLGVLFGMPQANHG was 5; that for MKKIMSARRRRVLLTIFCFSPQASAAYD was 7.27. As for MTMLRKIIGWILLLCIIDDDEEDVIASGKEV, the AmyQ secretion efficiency stood at 5.3. The value for MKKKQVMLALTAAAGLGLTALHSAPAAKVAPL was 6.92. The result for MKKCLLFLTTIALILSLSTNAFAANE reads 1.03. Consider MGLGKKGTYRVAASFMSLSISLPGVQAAEG, for which the AmyQ secretion efficiency stood at 4.07. Take MRPVFPLILSAVLFLSCFFGARQTEISASKR: the AmyQ secretion efficiency was determined as 2.64. The result for MKWMCSICCAAVLLAGGAAQMEAV reads 3.22; that for MNFKKTVVSALSISALALSVSGVASAHTI, 3.63; that for MRNLTKTSLLLAGLCTAAQMVFVTHISAEES, 3.9. The result for MLCKRRKRKSAIASFPVSAQAKDQ reads 6.78. For the sequence MTVPKTMLLSTAAGLLLSLTATSVSAHYV, the AmyQ secretion efficiency worked out at 6.58. The value for MMKKGQSGSALTATVLFGTCAVDVPGIISPKTAEAASQ was 6.78. The result for MLKKIGYQGCPRSYGSLLFFTAPASAHVS reads 7.75. The result for MKRTWNVCKRALLSVLLVAGSVPFHAEAKKP reads 3.1; that for MKLWMRKTLVVLFTIVTFGLVSPPAAMMADKP, 1.82; that for MKKAFILSAAAAVGLFTFKKKRRRASAKEL, 7.21.

For MRNRRKTSLLLAGLCTAAQMVFVTHASAEES, the AmyQ secretion efficiency was 3.33.

Consider MLCVMMLLFMAIASFPVSAQAKDQ, for which the AmyQ secretion efficiency was found to be 5.48.

Sequence MKQGRTFLTSFMLLAMTGQTALAKDV came in with an AmyQ secretion efficiency of 4.71.

Consider MRKSLITLGLASFTILVIGTSSFLIPFTSKTASAETL, for which the AmyQ secretion efficiency came out at 1.81. The result for MKQTRSKQSSFMLLAMTGQTALAKDV reads 7.56. Regarding MRSYIKVLTMCFLGLILFVPTNLADNS, the AmyQ secretion efficiency came to 3.6. The result for MRSKKLWISLLFALTLIFTMAFSNMSAQAAGQ reads 2.13; that for MKKLIMALVILGALRKRYISADSS, 7.22. The result for MKRIRIPMTLALGAALTIAPLSFASNEEN reads 7.9; that for MKKKLAAGLTASAIVGTTLVIVTPAEAATI, 3.35.

As to MRPVFPLILSAVLFLSCFFGARQTEMSASKR, the AmyQ secretion efficiency was determined as 3.55.

Consider MKKKQVMLALTAAAGLGLTALHSAPALKAAPL, for which the AmyQ secretion efficiency was found to be 4.89. MKKAFILSAAAAVGLFTFGGVQQASVKEL yielded an AmyQ secretion efficiency of 6.39. The value for MKRFSTAYLLLGILCSAAVFLIPQPGRALGAEV was 2.89; that for MKQGKFSVFLILLLMLTLVVAPKEKEEAASS was 7.98. The result for MKSKWMSGLLLVAVGFSFAIVMVHAGET reads 5.38; that for MRMLWRGQKSCGTYLTLAPCAQAAEP, 7.51; that for MRSYIKGTGRCKLGLILFVPTALADNS, 6.59. The value for MKKMLGKSRYGAGILVFFAVVVKDVFAAGL was 4.68; that for MKKIVSILFMFGLVMGFSQFQPSTVFADED was 4.03. In turn, MRFTKVVGFLSVLGLAAVFPLTAQAADD gave an AmyQ secretion efficiency of 3.85. The result for MRKNRILALFVLSLGLLSFMVTPTSAASK reads 2; that for MKKGIIRFLLVSFVLFFALSTGITGKQAAPA, 5.05. The value for MRMLWRSLALCGLALTLADDDCAQAAEP was 2.72; that for MKRWMRKTLVVLFTIVTFGLVSPPAALMADKP was 2.03. With MKLKSKLLLSCLALSTVFVATTIVNAPTH, the AmyQ secretion efficiency was 5.07. The result for MKSKGSIMACLILFSFTITDEINTETISAFSN reads 6.09.

MKTKTLFIFSAILTFAPNETFAQTA: the AmyQ secretion efficiency was found to be 2.34. Turning to MRKKRVRKCKKAASLTLGSLLPAGYASAKED, the AmyQ secretion efficiency amounted to 7.62. Regarding MKLSVKRGTTLTVAAAAMTAKMYATAKGN, the AmyQ secretion efficiency came to 7.06. The result for MKKRFRRRKKRAFILFAGAIAIPS reads 6.13; that for “MKKGIIRFLLVSFVLFFALLAFVVISFFSTGITGVQAAPA”, 2.07; that for MLCVMMLLFSAIAEDEVSAQAKDQ, 6.57. The result for MKKTGQQLLSLGLVFGFSYGAGHVAEAKTK reads 3.07; that for MKKRLILLSAASLAFFAMSGSAQAAAY, 2.92.
